# Experimental data: article PMC3192311
# Several values for one entry are separate records, joined by “and”; a condition that tells them apart may be missing. Equal entries are not always repeated.
# Tests used:
# [1] = target: LMP-1 transmembrane helix 1 synthetic peptide (TM1) (Epstein-Barr virus); assay: AUC
# [2] = target: Latent Membrane Protein 1 D150A, full length (Epstein-Barr virus) (UniProt P03230)
# [3] = target: Latent Membrane Protein 1 D150A, full length (Epstein-Barr virus) (UniProt P03230); remark: listed apart in the source
# [4] = target: LMP-1 TM5 D150A synthetic peptide (Epstein-Barr virus); assay: AUC
substance,measurement,setting,value
LMP-1 transmembrane helix 1 synthetic peptide (TM1),stoichiometry N,[1],2 and 4
"Latent Membrane Protein 1 D150A, full length (from UniProt P03230 1-386) (natural protein)","p65 nuclear translocation in HEp2 cells, % of exp + cells with nuc p65 (TR > 1)",[2],38%
same,"NFκB luciferase reporter assay in HEp2 cells, luciferase against empty vector",[3],1.2 times
LMP-1 TM5 D150A synthetic peptide,stoichiometry N,[4],2
